{
  "source": "patent US20150086555A1",
  "binders": {"B1": {"name": "TCN-523 (5248_A17) (antibody, V domains shown)", "VH": "QVQLVQSGAEVKKPGSSVKVSCKASGGSFSNYAFSWVRQAPGQGLEWMGGTIPLLGTTNYAQKFQGRVTISADQFTSTAYMELGSLRSEDTAVYYCTRRKMTTAFDSWGQGTLVTVSS", "VL": "QPVLTQPPSASASLGASVTLTCTLSSAYSNYKVDWYQQRPGKGPRFVMRVGTGGIVGSKGDGIPDRFSVLGSGLNRYLTIKNIQEEDESDYHCGADHGSGSNFVSPYVFGGGTKLTVL"}, "B2": {"name": "TCN-535 (5246_P19) (antibody, V domains shown)", "VH": "QVQLVQSGSEVKKPGTSVKVSCTASGSVFTNYGISWVRQAPGQGLEWMGGIIPLFGAAKYAQKFQGRVTITADESTKTVYMELSRLTSKDTAIYFCAKAPRVYEYYFDQWGQGTPVTVSS", "VL": "EIVLTQSPGTLSLSPGERATLSCRASQSVSSSQLAWYQQKPGQAPRLIIYGASTRATGIPDRFSGSGSGTDFTLTIGRLEPEDFAVFFCQQYSTSPPTFGQGTKVDFK"}, "B3": {"name": "TCN-504 (3251_K17) (antibody, V domains shown)", "VH": "QVQLQESGPGLVKPSETLSLTCAVSGVSISNIDFYWGWIRQPPGKGLEWIGNIYYTGITFYNPSLSSRVAISIDTSKNQFSLTLTSVTAADTAMYYCARHYGDSEAINDAFDIWGQGTMLTVSS", "VL": "EIVMTQSPATLSVSPGERATLSCRASQSVGNSLAWYQQRPGQAPRLLIYGASTRATGIPPRFSGSGSGTEFTLTISSLQTEDFAVYYCQQYINWRPLSFGGGTKVEIK"}, "B4": {"name": "TCN-530 (5248_H10a) (antibody, V domains shown)", "VH": "QVQLVQSGAEVRKPGSSVKVSCKASGGPFMSYAIGWVRQAPGQGLEWMGGINPVFGRPHYAQKFQGRVTIATDDSTKTSYMELSSLTSEDTGMYYCASRYSRSSPGTFESWGQGTLVTVSS", "VL": "EIVMTQFPATLSVSPGERVTLSCRASQSVSNNLAWYQQKPGQPPRLLIYDASTRATGVPAKFSGTGSGTEFTLSISSLQSEDFAVYYCQQYHNWPPSYSFGLGTKLEIK"}, "B5": {"name": "TCN-534 (5249_B02) (antibody, V domains shown)", "VH": "QVQLVQSGAEVKKPGSSVKVSCRESGGTFNGYTITWVRQAPGQGLEWMGGIIPMMGTVNYAQKLQGRVTITTDYFTKTAYMDLNNLRSEDTAMYYCVKIRYTGQQLLWGQGTLVTVSS", "VL": "DIQMTQSPSTLSASIGDRVTITCRASQSIASWLAWYQQKPGKAPKLLIYEAVNLESGVPSRFSGSGSGTDFTLTISSLQPDDFATYFCQHYGTISQTFGGGTKVEIK"}},
  "conditions_in_all_cases": "remark: other sources report otherwise",
  "key": {"[1]": {"target": "recombinant soluble homotrimeric HA of A/Netherlands/219/03 (H7N7) (Influenza A virus A/Netherlands/219/03(H7N7))", "test": "trimeric HA microarray, transfection supernatant set 3"}, "[2]": {"target": "recombinant soluble homotrimeric HA of A/Egypt/3300-NAMRU3/08 (H5N1) (Influenza A virus A/Egypt/3300-NAMRU3/2008(H5N1))", "test": "trimeric HA microarray, transfection supernatant set 3"}, "[3]": {"target": "recombinant soluble homotrimeric HA of A/California/4/09 (H1N1) (Influenza A virus A/California/04/2009(H1N1))", "test": "trimeric HA microarray, transfection supernatant set 3"}, "[4]": {"target": "recombinant soluble homotrimeric HA of A/South Carolina/1/18 (H1N1) (Influenza A virus A/South Carolina/1/18 (H1N1))", "test": "trimeric HA microarray, transfection supernatant set 3"}, "[5]": {"target": "recombinant soluble homotrimeric HA of A/Anhui/1/05 (H5N1) (Influenza A virus A/Anhui/1/2005(H5N1))", "test": "trimeric HA microarray, transfection supernatant set 3"}, "[6]": {"target": "recombinant soluble homotrimeric HA of A/Japan/305/57 (H2N2) (Influenza A virus A/Japan/305/1957(H2N2))", "test": "trimeric HA microarray, transfection supernatant set 3"}, "[7]": {"target": "recombinant soluble homotrimeric HA of A/chicken/Vietnam/NCVD-016/08 (H5N1) (Influenza A virus A/chicken/Vietnam/NCVD-016/2008(H5N1))", "test": "trimeric HA microarray, transfection supernatant set 3"}, "[8]": {"target": "recombinant soluble homotrimeric HA of A/Vietnam/1203/04 (H5N1) (Influenza A virus A/VietNam/1203/2004(H5N1))", "test": "trimeric HA microarray, transfection supernatant set 3"}, "[9]": {"target": "recombinant soluble homotrimeric HA of A/Indonesia/5/05 (H5N1) (Influenza A virus A/Indonesia/5/2005(H5N1))", "test": "trimeric HA microarray, transfection supernatant set 3"}, "[10]": {"target": "recombinant soluble homotrimeric HA of A/Hong Kong/1073/99 (H9N2) (Influenza A virus A/Hong Kong/1073/99 (H9N2))", "test": "trimeric HA microarray, transfection supernatant set 4"}, "[11]": {"target": "recombinant soluble homotrimeric HA, A/Netherlands/219/03 H7N7 (Influenza A virus A/Netherlands/219/03(H7N7))", "test": "microarray, transfection SN IgG, trimeric HA"}, "[12]": {"target": "recombinant soluble homotrimeric HA, A/swine/Ontario/01911-2/99 H4N6 (Influenza A virus A/Swine/Ontario/01911-2/99 (H4N6))", "test": "microarray, transfection SN IgG, trimeric HA"}},
  "data": [
    {"binder": "B1", "values": [
      {"measurement": "Trimeric HA Binding: RLU", "setting": "[1]", "result": 3140, "unit": "RLU"},
      {"measurement": "Trimeric HA Binding: RLU", "setting": "[2]", "result": 29100, "unit": "RLU"},
      {"measurement": "Trimeric HA Binding: RLU", "setting": "[3]", "result": 19400, "unit": "RLU"},
      {"measurement": "Trimeric HA Binding: RLU", "setting": "[4]", "result": 23700, "unit": "RLU"},
      {"measurement": "Trimeric HA Binding: RLU", "setting": "[5]", "result": 546, "unit": "RLU"},
      {"measurement": "Trimeric HA Binding: RLU", "setting": "[6]", "result": 4550, "unit": "RLU"},
      {"measurement": "Trimeric HA Binding: RLU", "setting": "[7]", "result": 18900, "unit": "RLU"},
      {"measurement": "Trimeric HA Binding: RLU", "setting": "[8]", "result": 22100, "unit": "RLU"},
      {"measurement": "Trimeric HA Binding: RLU", "setting": "[9]", "result": 22000, "unit": "RLU"},
      {"measurement": "Trimeric HA Binding: RLU", "setting": "[10]", "result": 24600, "unit": "RLU"}
    ]},
    {"binder": "B2", "values": [
      {"measurement": "Trimeric HA Binding: RLU", "setting": "[10]", "result": 21200, "unit": "RLU"}
    ]},
    {"binder": "B3", "values": [
      {"measurement": "Trimeric HA Binding: RLU", "setting": "[1]", "result": 19600, "unit": "RLU"},
      {"measurement": "Trimeric HA Binding: RLU", "setting": "[2]", "result": 18000, "unit": "RLU"},
      {"measurement": "Trimeric HA Binding: RLU", "setting": "[3]", "result": 18600, "unit": "RLU"},
      {"measurement": "Trimeric HA Binding: RLU", "setting": "[4]", "result": 27600, "unit": "RLU"},
      {"measurement": "Trimeric HA Binding: RLU", "setting": "[5]", "result": 30000, "unit": "RLU"},
      {"measurement": "Trimeric HA Binding: RLU", "setting": "[6]", "result": 36000, "unit": "RLU"},
      {"measurement": "Trimeric HA Binding: RLU", "setting": "[7]", "result": 10300, "unit": "RLU"},
      {"measurement": "Trimeric HA Binding: RLU", "setting": "[8]", "result": 13300, "unit": "RLU"},
      {"measurement": "Trimeric HA Binding: RLU", "setting": "[9]", "result": 18600, "unit": "RLU"},
      {"measurement": "Trimeric HA Binding: RLU", "setting": "[11]", "result": 30600, "unit": "RLU"},
      {"measurement": "Trimeric HA Binding: RLU", "setting": "[12]", "result": 54800, "unit": "RLU"}
    ]},
    {"binder": "B4", "values": [
      {"measurement": "Trimeric HA Binding: RLU", "setting": "[1]", "result": 118, "unit": "RLU"},
      {"measurement": "Trimeric HA Binding: RLU", "setting": "[2]", "result": 25500, "unit": "RLU"},
      {"measurement": "Trimeric HA Binding: RLU", "setting": "[3]", "result": 21200, "unit": "RLU"},
      {"measurement": "Trimeric HA Binding: RLU", "setting": "[4]", "result": 17200, "unit": "RLU"},
      {"measurement": "Trimeric HA Binding: RLU", "setting": "[5]", "result": 97, "unit": "RLU"},
      {"measurement": "Trimeric HA Binding: RLU", "setting": "[6]", "result": 5170, "unit": "RLU"},
      {"measurement": "Trimeric HA Binding: RLU", "setting": "[7]", "result": 18000, "unit": "RLU"},
      {"measurement": "Trimeric HA Binding: RLU", "setting": "[8]", "result": 25200, "unit": "RLU"},
      {"measurement": "Trimeric HA Binding: RLU", "setting": "[9]", "result": 25500, "unit": "RLU"}
    ]},
    {"binder": "B5", "values": [
      {"measurement": "Trimeric HA Binding: RLU", "setting": "[10]", "result": 731, "unit": "RLU"}
    ]}
  ]
}
